One variant from IntAct's records for PubMed 20417604 can be followed below.

B1: Ataxin-1 (Homo sapiens), P54253 (parent)
chain: MKSNQERSNECLPPKKREIPATSRSSEEKAPTLPSDNHRVEGTAWLPGNPGGRGHGGGRHGPAGTSVELGLQQGIGLHKALSTGLDYSPPSAPRSVPVATTLPAAYATPQPGTPVSPVQYAHLPHTFQFIGSSQYSGTYASFIPSQLIPPTANPVTSAVASAAGATTPSQRSQLEAYSTLLANMGSLSQTPGHKAEQQQQQQQQQQQQHQHQQQQQQQQQQQQQQHLSRAPGLITPGSPPPAQQNQYVHISSSPQNTGRTASPPAIPVHLHPHQTMIPHTLTLGPPSQVVMQYADSGSHFVPREATKKAESSRLQQAIQAKEVLNGEMEKSRRYGAPSSADLGLGKAGGKSVPHPYESRHVVVHPSPSDYSSRDPSGVRASVMVLPNSNTPAADLEVQQATHREASPSTLNDKSGLHLGKPGHRSYALSPHTVIQTTHSASEPLPVGLPATAFYAGTQPPVIGYLSGQQQAITYAGSLPQHLVIPGTQPLLIPVGSTDMEASGAAPAIVTSSPQFAAVPHTFVTTALPKSENFNPEALVTQAAYPAMVQAQIHLPVVQSVASPAAAPPTLPPYFMKGSIIQLANGELKKVEDLKTEDFIQSAEISNDLKIDSSTVERIEDSHSPGVAVIQFAVGEHRAQVSVEVLVEYPFFVFGQGWSSCCPERTSQLFDLPCSKLSVGDVCISLTLKNLKNGSVKKGQPVDPASVLLKHSKADGLAGSRHRYAEQENGINQGSAQMLSENGELKFPEKMGLPAAPFLTKIEPSKPAATRKRRWSAPESRKLEKSEDEPPLTLPKPSLIPQEVKICIEGRSNVGK

In the test the parent is B1. The following applies: with wdfy3_human WDFY3, Q8IZQ1.
wdfy3_human WDFY3, Q8IZQ1, sequence (Q8IZQ1 whole entry): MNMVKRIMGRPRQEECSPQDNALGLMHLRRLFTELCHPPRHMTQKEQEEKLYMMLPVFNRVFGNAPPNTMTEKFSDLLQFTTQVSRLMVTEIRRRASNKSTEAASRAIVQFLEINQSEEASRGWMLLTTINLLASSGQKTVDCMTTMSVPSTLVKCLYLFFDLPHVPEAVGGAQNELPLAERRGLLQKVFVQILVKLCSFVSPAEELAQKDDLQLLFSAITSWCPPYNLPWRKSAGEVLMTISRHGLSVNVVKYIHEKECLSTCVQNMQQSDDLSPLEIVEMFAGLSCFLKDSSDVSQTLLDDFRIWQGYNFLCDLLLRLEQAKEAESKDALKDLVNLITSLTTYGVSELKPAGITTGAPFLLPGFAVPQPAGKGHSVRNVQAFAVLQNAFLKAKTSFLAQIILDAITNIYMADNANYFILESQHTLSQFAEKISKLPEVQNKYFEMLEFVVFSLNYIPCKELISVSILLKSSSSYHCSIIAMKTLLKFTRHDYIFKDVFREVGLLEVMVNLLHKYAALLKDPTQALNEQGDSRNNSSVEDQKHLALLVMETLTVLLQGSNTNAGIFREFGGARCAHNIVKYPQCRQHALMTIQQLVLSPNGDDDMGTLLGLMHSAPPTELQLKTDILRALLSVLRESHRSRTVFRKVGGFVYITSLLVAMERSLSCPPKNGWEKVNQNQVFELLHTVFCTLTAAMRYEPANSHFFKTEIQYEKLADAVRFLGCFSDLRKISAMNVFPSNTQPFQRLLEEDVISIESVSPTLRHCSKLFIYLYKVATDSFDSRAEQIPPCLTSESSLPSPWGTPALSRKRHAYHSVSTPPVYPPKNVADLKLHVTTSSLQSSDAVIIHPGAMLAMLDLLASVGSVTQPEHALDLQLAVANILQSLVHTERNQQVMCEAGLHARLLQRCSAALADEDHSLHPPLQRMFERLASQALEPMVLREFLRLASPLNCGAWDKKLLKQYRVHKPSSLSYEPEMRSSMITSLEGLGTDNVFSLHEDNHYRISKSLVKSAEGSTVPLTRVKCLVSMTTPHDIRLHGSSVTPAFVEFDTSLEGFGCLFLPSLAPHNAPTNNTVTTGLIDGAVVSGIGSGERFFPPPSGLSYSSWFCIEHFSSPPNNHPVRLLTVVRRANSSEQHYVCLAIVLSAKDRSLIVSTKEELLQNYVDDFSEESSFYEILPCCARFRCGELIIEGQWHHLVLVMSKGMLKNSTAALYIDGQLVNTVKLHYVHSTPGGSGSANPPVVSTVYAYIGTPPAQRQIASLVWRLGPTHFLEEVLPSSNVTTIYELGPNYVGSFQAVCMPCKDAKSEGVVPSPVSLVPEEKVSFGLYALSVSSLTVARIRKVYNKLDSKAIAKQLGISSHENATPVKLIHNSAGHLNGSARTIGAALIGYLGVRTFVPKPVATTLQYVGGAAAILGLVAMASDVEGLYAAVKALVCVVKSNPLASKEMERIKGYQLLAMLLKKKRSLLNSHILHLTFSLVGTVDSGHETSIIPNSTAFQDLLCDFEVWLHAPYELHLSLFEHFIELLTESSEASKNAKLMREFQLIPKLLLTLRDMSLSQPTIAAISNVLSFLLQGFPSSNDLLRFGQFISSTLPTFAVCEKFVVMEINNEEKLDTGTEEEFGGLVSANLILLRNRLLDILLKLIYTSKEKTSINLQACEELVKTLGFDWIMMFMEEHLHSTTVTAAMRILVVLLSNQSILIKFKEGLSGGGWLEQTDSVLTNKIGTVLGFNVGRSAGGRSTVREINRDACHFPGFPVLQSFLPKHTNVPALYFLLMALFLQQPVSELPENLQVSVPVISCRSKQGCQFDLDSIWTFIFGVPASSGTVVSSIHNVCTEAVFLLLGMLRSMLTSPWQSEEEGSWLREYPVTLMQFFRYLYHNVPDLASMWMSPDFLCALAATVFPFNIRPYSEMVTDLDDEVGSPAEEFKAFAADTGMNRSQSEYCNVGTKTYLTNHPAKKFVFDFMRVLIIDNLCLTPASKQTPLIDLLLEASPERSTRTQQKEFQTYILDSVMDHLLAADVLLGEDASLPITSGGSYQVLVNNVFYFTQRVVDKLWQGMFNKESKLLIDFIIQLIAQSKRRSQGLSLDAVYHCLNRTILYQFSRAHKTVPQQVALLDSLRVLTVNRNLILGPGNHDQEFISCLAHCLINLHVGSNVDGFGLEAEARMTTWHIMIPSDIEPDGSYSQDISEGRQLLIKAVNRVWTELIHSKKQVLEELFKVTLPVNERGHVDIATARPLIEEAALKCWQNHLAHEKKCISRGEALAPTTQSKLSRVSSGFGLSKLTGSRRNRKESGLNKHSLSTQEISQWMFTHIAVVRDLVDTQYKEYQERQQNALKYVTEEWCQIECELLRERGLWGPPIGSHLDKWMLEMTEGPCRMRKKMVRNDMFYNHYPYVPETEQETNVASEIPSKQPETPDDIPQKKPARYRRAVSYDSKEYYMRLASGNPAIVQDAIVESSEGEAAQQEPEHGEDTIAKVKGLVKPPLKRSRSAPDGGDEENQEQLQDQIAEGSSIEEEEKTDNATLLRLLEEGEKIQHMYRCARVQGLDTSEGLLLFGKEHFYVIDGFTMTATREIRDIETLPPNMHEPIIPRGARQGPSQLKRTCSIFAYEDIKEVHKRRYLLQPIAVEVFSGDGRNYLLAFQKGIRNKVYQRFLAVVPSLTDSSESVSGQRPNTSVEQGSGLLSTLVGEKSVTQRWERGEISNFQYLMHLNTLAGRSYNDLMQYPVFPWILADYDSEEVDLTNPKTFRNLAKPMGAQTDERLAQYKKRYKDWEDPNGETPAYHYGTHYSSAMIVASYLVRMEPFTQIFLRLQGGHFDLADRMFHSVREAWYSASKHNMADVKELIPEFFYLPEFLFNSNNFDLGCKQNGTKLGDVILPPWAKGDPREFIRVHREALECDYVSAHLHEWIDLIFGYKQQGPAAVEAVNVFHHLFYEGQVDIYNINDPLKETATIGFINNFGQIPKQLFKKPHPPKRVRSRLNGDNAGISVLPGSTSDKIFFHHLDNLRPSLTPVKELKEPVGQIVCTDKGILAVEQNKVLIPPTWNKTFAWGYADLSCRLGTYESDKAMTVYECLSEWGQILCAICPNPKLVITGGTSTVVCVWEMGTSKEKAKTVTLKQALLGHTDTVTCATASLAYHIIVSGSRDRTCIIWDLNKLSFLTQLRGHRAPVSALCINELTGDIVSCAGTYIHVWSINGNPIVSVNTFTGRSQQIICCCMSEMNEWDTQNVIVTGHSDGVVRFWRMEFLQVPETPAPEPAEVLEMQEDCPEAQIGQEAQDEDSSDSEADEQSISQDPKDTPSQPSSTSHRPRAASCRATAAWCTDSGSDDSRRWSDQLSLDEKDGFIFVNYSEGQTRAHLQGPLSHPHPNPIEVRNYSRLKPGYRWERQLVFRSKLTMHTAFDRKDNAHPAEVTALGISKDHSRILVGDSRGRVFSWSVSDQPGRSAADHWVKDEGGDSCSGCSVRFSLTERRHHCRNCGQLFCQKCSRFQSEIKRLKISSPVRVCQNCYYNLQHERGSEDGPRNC
For the variant K771T, the “effect of a mutation on the interaction” value is “disrupting interaction”.
